Test results taken from PMC5979959.

Biological target: human DNAJB6, cytosolic isoform B (human) (UniProt O75190)
Assay: native gel or EMSA + other: negative stain electron microscopy; DNAJB6 oligomers fractionated by GraFix (5-30% sucrose, 0-0.2% glutaraldehyde gradient, 20 mM NaPO4, 150 mM NaCl, pH 8.0, 4 °C); fraction 5 analysed by blue native-PAGE and negative stain EM with single particle reconstruction

human DNAJB6, cytosolic isoform B, O75190-2 1-241 (natural protein; other documents disagree on this pair), sequence (O75190 other isoform, or with tags, fused parts or gaps): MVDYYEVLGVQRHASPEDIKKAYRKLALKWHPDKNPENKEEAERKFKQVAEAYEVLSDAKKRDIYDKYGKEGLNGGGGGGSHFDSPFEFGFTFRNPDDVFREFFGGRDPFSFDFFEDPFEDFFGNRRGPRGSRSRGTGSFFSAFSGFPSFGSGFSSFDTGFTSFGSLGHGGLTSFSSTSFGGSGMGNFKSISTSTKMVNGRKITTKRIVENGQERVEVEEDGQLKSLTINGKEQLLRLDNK

human DNAJB6, cytosolic isoform B, O75190-2 1-241 (natural protein; other documents disagree on this pair)
stoichiometry N: 20 subunits
